Measurements as given in patent publication US20190111149A1, “ANTI-EGFR ANTIBODY DRUG CONJUGATE” (priority 2016, published 2019).

Columns and labels:
[1] = biological target: MBI_CD19_1; (SAR3419); assay: BLI Octet, antibody on anti-human Fc tip, peptide […]
[2] = biological target: MBI_CD19_2; (MOR208); assay: as above
[3] = biological target: Meditope enabled Clivatuzumab; assay: as above
[4] = biological target: Meditope enabled Ocaratuzumab; assay: as above
[5] = biological target: Photo optimized trastuzumab; meditope enabled (Tmab); assay: as above
[6] = biological target: MBI_CD19_1; (SAR3419); assay: BLI Octet, antibody on anti-human Fc tip, peptide 37 nM
[7] = biological target: MBI_CD19_2; (MOR208); assay: as above
[8] = biological target: Meditope enabled Ocaratuzumab; assay: as above
[9] = biological target: Photo optimized trastuzumab; meditope enabled (Tmab); assay: as above
[10] = biological target: MBI_CD19_1; (SAR3419); assay: BLI Octet, antibody on anti-human Fc tip, peptide 333 nM
[11] = biological target: MBI_CD19_2; (MOR208); assay: as above
[12] = biological target: Meditope enabled Clivatuzumab; assay: as above
[13] = biological target: Photo optimized trastuzumab; meditope enabled (Tmab); assay: as above

Chain of MBI_CD19_1; (SAR3419) (chain, as listed by the source, chain 1 of 2): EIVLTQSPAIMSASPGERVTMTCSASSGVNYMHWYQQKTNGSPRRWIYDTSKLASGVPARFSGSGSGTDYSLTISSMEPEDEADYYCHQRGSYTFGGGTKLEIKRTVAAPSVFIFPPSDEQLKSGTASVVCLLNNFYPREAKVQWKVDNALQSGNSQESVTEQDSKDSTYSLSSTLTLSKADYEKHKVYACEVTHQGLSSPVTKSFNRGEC
Chain of MBI_CD19_1; (SAR3419) (chain, as listed by the source, chain 2 of 2): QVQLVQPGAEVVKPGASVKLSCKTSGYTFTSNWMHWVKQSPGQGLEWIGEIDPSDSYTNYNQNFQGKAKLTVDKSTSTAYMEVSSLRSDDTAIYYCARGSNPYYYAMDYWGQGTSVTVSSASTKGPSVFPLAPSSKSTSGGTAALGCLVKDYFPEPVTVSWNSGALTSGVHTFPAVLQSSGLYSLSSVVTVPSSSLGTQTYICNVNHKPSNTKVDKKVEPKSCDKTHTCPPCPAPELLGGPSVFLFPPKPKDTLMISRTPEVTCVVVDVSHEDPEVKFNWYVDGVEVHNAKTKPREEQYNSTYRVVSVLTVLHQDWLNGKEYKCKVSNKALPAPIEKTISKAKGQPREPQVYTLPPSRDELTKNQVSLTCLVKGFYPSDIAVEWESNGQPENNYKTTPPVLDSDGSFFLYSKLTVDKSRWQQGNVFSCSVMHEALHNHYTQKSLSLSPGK
Chain of Photo optimized trastuzumab; meditope enabled (Tmab) (chain, as listed by the source, chain 1 of 2): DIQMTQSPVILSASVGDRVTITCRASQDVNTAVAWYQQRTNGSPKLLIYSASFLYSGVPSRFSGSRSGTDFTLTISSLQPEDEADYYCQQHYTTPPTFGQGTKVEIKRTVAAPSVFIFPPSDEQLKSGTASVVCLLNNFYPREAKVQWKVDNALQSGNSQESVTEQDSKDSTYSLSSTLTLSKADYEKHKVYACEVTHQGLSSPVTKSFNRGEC
Chain of Photo optimized trastuzumab; meditope enabled (Tmab) (chain, as listed by the source, chain 2 of 2): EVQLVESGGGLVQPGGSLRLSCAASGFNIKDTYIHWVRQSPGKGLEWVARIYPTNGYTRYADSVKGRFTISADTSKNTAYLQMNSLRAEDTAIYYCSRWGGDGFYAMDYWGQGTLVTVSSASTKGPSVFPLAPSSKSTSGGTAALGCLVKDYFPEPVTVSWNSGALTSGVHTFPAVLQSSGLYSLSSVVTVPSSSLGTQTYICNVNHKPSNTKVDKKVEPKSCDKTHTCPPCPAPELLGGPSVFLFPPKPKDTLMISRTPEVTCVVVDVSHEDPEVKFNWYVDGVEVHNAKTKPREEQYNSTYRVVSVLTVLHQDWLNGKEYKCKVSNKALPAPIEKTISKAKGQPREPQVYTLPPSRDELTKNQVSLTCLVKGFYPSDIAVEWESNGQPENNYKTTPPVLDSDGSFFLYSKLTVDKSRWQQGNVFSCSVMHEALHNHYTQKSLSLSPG
Chain of MBI_CD19_2; (MOR208) (chain, as listed by the source, chain 1 of 2): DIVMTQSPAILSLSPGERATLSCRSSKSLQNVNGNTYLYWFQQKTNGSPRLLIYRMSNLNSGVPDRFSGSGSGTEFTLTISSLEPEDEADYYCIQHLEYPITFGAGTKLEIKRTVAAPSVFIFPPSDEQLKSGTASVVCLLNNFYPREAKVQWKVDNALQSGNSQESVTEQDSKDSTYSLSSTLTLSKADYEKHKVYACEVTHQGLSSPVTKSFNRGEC
Chain of MBI_CD19_2; (MOR208) (chain, as listed by the source, chain 2 of 2): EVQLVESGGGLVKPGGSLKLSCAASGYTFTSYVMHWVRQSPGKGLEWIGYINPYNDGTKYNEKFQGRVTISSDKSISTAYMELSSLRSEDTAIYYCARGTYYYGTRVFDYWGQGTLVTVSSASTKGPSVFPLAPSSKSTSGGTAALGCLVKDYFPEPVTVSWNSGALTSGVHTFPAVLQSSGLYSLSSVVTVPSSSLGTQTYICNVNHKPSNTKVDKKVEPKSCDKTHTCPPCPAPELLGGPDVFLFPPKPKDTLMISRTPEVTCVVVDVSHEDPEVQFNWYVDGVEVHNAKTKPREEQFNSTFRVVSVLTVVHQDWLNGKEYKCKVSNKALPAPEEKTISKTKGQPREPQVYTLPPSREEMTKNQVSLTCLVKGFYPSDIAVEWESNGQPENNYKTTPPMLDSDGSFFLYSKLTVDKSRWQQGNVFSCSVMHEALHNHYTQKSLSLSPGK
Chain of Meditope enabled Clivatuzumab (chain, as listed by the source, chain 1 of 2): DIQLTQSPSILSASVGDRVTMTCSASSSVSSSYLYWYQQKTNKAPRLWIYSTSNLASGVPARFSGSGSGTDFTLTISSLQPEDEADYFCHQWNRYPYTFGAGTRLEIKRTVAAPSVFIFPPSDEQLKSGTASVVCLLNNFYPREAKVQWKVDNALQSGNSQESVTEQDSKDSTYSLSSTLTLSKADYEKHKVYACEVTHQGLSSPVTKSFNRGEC
Chain of Meditope enabled Clivatuzumab (chain, as listed by the source, chain 2 of 2): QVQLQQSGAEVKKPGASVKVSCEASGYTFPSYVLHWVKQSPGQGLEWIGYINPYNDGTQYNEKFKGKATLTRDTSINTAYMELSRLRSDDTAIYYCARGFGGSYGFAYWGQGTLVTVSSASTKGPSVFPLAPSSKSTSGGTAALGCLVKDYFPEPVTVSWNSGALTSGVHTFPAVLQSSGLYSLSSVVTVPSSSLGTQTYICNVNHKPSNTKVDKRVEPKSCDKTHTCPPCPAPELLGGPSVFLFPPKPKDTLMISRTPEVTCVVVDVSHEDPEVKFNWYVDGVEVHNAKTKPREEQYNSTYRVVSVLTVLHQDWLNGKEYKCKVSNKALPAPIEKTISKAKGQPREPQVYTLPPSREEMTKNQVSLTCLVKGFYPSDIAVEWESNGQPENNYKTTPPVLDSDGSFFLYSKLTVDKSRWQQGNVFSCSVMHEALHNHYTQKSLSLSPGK
Chain of Meditope enabled Ocaratuzumab (chain, as listed by the source, chain 1 of 2): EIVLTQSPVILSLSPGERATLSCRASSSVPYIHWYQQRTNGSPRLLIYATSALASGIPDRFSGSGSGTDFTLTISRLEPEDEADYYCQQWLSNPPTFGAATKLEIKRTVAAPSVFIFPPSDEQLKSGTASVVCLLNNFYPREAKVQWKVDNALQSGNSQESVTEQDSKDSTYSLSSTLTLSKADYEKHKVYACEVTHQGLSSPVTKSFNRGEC
Chain of Meditope enabled Ocaratuzumab (chain, as listed by the source, chain 2 of 2): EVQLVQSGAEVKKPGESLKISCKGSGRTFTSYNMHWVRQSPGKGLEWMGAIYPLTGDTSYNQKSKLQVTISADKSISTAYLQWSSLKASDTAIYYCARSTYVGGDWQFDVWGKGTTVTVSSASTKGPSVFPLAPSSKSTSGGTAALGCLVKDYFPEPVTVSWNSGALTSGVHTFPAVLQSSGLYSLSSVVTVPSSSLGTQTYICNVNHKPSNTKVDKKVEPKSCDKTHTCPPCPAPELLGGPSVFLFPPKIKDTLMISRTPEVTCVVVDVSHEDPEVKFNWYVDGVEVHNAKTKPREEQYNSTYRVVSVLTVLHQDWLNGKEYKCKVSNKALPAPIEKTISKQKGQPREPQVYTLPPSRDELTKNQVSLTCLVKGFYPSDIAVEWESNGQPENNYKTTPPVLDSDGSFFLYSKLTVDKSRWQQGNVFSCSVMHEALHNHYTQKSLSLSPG

B1: Peptide 22: DM1 conjugated cQFD (cQFD-DM1) (peptide)
peptide: CQFDLSTRRLRC
modifications: not checked
B1 gave a Kd [1] of under 0.001 nM, a Kd [2] of 0.452 nM and a Kd [3] of 3160 nM. It also gave a Kd [4] of under 0.001 nM, a Kd [5] of 1.88 nM and a Kd [6] of under 0.001 nM. It also gave a Kd [7] of under 0.001 nM, a Kd [8] of under 0.001 nM and a Kd [9] of 2.62 nM. It also gave a Kd [10] of 5.23 nM, a Kd [11] of under 0.001 nM and a Kd [12] of 2.69 nM. For the same binder, the Kd [13] was 1.63 nM.
